Assay results: patent US20230167182A1 (BIOSION, published 2023)

Legend:
human IL6R-Fc protein [1] = biological target: T1, human IL6R-Fc protein (human, biotin-labeled in the ELISAs (sites not given)); test: benchmark blocking ELISA: antibody pre-incubated with biotin-labeled human IL6R-Fc, added to plate-coated Tocilizumab (competitor: Tocilizumab)
T1 construct: In house made; also called biotin-labeled human IL6R-Fc protein
Protocol: (§1) ELISA plates were washed once with wash buffer (PBS+0.05% v/v Tween-20, PBST) and then blocked with 200 μl/well blocking buffer (5% w/v non-fatty milk in PBST) overnight at 4° C.
The next day, the anti-IL6R antibodies of the disclosure or controls were diluted with biotin labeled human IL6R-Fc protein (SEQ ID NO: 43, 13.6 ng/ml in 2.5% w/v non-fatty milk in PBST), starting at 100 nM with a 5-fold serial dilution, and incubated at room temperature for 40 minutes. […] After incubation at 37° C. for 40 minutes, plates were washed 4 times using wash buffer. Then streptavidin conjugated HRP was added, and the plates were incubated for 40 minutes at 37° C. The plates were finally washed using wash buffer, and added with TMB. The reaction was stopped using 1M […], and the absorbance was read on a microplate reader using dual wavelength mode with 450 nm for TMB and 630 nm as the reference wavelength. The OD (450-630) values were plotted against antibody concentration. Data was analyzed using Graphpad Prism software and IC₅₀ values were reported.

human IL6R-Fc protein [2] = biological target: T1, human IL6R-Fc protein; test: capture ELISA: antibody captured on anti-IgG F(ab')2 coated plate, then biotin-labeled human IL6R-Fc, streptavidin-HRP
Protocol: For the capture ELISA, 96-well micro plates were coated with 2 μg/ml AffiniPure Goat Anti-Mouse IgG, F(ab′)₂ fragment specific (Jackson ImmunoResearch Laboratories, Inc., Cat #115-005-072) in PBS, 100 μl/well, and incubated for 2 hours at 37° C. Plates were washed once with wash buffer (PBS+0.05% v/v Tween-20, PBST) and then blocked with 200 μl/well blocking buffer (5% w/v non-fatty milk in PBST) overnight at 4° C. […] Plates containing captured anti-IL6R antibodies were incubated with biotin-labeled human IL6R-Fc protein (prepared in house, SEQ ID NO: 43, 39.5 ng/ml in 2.5% w/v non-fatty milk in PBST, 100 μl/well) for 40 minutes at 37° C., washed 4 times, and incubated with streptavidin conjugated HRP (1:10000 dilution in PBST, Jackson ImmunoResearch Laboratories, Inc., Cat #016-030-084, 100 μl/well) for 40 minutes at 37° C. After a final wash, plates were incubated with 100 μl/well ELISA substrate TMB (InnoReagents, Cat #TMB-S-002). The reaction was stopped 3-10 minutes later at room temperature with 50 μl/well 1M H₂SO₄, and the absorbance of each well was read on a microplate reader using dual wavelength mode at 450 nm for TMB and 630 nm as the reference wavelength. Then the OD (450-630) values were plotted against antibody concentration. Data was analyzed using Graphpad Prism software and EC₅₀ values were reported.
For the capture ELISA, 96-well micro plates were coated with 2 μg/ml goat anti-human IgG (AffiniPure Goat Anti-Human IgG, F(ab′)₂ fragment specific, Jackson ImmunoResearch Laboratories, Inc., Cat #109-005-097) instead of goat anti-mouse IgG F(ab′)₂ fragment, 100 μl/well.
Target sequence in this assay (chain, as listed by the source limits assumed): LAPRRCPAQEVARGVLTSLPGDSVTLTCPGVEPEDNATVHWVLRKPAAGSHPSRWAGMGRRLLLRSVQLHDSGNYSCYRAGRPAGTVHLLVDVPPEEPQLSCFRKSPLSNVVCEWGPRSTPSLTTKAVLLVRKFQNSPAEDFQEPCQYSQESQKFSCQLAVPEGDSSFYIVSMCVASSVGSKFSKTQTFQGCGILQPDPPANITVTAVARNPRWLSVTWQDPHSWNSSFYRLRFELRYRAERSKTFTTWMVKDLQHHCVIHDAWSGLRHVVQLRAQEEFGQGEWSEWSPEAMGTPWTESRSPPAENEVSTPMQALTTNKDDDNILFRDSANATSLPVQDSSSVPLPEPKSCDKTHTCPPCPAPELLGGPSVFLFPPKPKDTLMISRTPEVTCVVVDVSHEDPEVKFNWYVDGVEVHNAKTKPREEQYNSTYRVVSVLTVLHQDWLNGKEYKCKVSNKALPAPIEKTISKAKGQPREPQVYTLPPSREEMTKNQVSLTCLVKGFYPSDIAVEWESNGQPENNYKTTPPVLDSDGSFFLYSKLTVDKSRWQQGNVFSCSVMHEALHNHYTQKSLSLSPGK

human IL6R-Fc protein [3] = biological target: T1, human IL6R-Fc protein; test: benchmark blocking ELISA: antibody pre-incubated with biotin-labeled human IL6R-Fc, added to plate-coated Tocilizumab (competitor: Tocilizumab); remark: listed apart in the source
Target sequence in this assay (chain, as listed by the source limits assumed): as above

human IL6R-Fc protein [4] = biological target: T1, human IL6R-Fc protein; test: ligand blocking ELISA: antibody pre-incubated with biotin-labeled human IL6R-Fc, added to plate-coated human IL6 (blocked ligand: human IL6)
Protocol: as §1
Target sequence in this assay (chain, as listed by the source limits assumed): as above
The next day, anti-IL6R antibodies or controls were diluted with biotin labeled human IL6R-Fc protein (prepared in house, SEQ ID NO: 43, 39.5 ng/ml in 2.5% w/v non-fatty milk in PBST), starting at 100 nM with a 4-fold serial dilution, and incubated at room temperature for 40 minutes. […] Plates were washed for 4 times using wash buffer, and added and incubated with 100 μl/well of streptavidin conjugated HRP (1:10000 dilution in PBST buffer, Jackson ImmunoResearch Laboratories, Inc., Cat #016-030-084) for 40 minutes at 37° C. Plates were washed again using wash buffer. Finally, TMB was added and the reaction was stopped using 1M H₂SO₄. The absorbance was read on a microplate reader using dual wavelength mode with 450 nm for TMB and 630 nm as the reference wavelength, and then the OD (450-630) values were plotted against antibody concentration. Data was analyzed using Graphpad Prism software and IC₅₀ values were reported.

human IL6R-Fc protein [5] = biological target: T1, human IL6R-Fc protein; test: as above; remark: listed apart in the source
Target sequence in this assay (chain, as listed by the source limits assumed): as above

Row | Binder | IC50 (human IL6R-Fc protein [1]) [pM] | EC50 (human IL6R-Fc protein [2]) [pM] | IC50 (human IL6R-Fc protein [3]) [pM] | IC50 (human IL6R-Fc protein [4]) [pM] | IC50 (human IL6R-Fc protein [5]) [pM]
1 | Chimeric 1H7 (antibody, human IgG1, kappa, V domains shown, Mouse variable regions on human IgG1 / human kappa constant regions; also called chimeric antibody 1H7) VH: QVQLQQPGTELVKPGASVKLSCKASGYTFTNYWMHWVKQRPGQGLDWIGEINPTNGRTNYNENFKSKATLTVDKSSSTAYMQLSSLTSEDSAVYYCARLNTHYVFDSWGQGTTLTLSS VL: EIVLTQSPTTLAASPGEKITFTCSVSSSISSNYLHWYQQKPGFSPKLLISRTSTLASGVPARFSGSGSGTSYSLTIGTMEAEDVATYYCQQGSGIPFTFGSGTKLELKR |  | 201 | 194 | 161 | 261
2 | mouse anti-IL6R monoclonal antibody 1B5 (antibody, V domains shown, Mouse hybridoma mAb) VH: QVQLQQPGAELVKPGASVKLSCKASGYTFTSYWMHWVKQRPGQGLEWIGEINPSNGRTNYNENFKSKATLTVDKSSSTAYMQLSSLTSEDSAVYYCARLNTHYVFDYWGQGTTLTVSS VL: EIVLTQSPTILAASPGEKITFTCSVSSSISSNYLHWYQQKPGFSPKLLIYRTSNLASGVPARFSGSGSGTSYSLTIGTMEAEDVATYYCQQGSGIPFTFGSGTKLEIK |  |  | 230 |  | 281
3 | Tocilizumab (antibody, human IgG1, kappa, V domains shown, In house made; also called benchmark; Actemra) VH: QVQLQESGPGLVRPSQTLSLTCTVSGYSITSDHAWSWVRQPPGRGLEWIGYISYSGITTYNPSLKSRVTMLRDTSKNQFSLRLSSVTAADTAVYYCARSLARTTAMDYWGQGSLVTVSS VL: DIQMTQSPSSLSASVGDRVTITCRASQDISSYLNWYQQKPGKAPKLLIYYTSRLHSGVPSRFSGSGSGTDFTFTISSLQPEDIATYYCQQGNTLPYTFGQGTKVEIKR | 1580 | 504 | 812 | 1030 | 773
4 | humanized antibody hu1H7-V5 (antibody, human IgG1, kappa, V domains shown, Human IgG1 / kappa) VH: QVQLVQSGAEVKKPGASVKVSCKASGYTFTNYWMHWVRQAPGQGLEWIGEINPTNGRTNYNENFKSRVTLTVDTSTSTVYMELSSLRSEDTAVYYCARLNTHYVFDSWGQGTLVTVSS VL: EIVLTQSPGTLSLSPGERATLSCSVSSSISSNYLHWYQQKPGLSPRLLISRTSTLASGIPARFSGSGSGTEYTLTISRMQSEDFAVYYCQQGSGIPFTFGQGTKLEIKR |  | 310 |  | 223 | 

The remaining lines, values ahead:

Row | IC50 (human IL6R-Fc protein [1]) [pM] | EC50 (human IL6R-Fc protein [2]) [pM] | IC50 (human IL6R-Fc protein [3]) [pM] | IC50 (human IL6R-Fc protein [4]) [pM] | IC50 (human IL6R-Fc protein [5]) [pM] | Binder
5 | 323 |  |  |  |  | mouse anti-IL6R monoclonal antibody 1H9 (antibody, V domains shown, Mouse hybridoma mAb) VH: QVQLQQPGAELVKPGASVKLSCKASGYTFTSYWMHWVKLRPGQGLEWIGEINPTNGRTNYYEKFKNRATLTADKSSSTAYMQLSSLTFEDSAVYFCAKFHYSRWYFDVWGTGTTVTVSS VL: DIVMTQSQKFMSTSVGDRVSITCKASQNVGTAVVWYQQKPGQSPKLLINPASNRYTGVPDRFTGSGSGTDFTLTISNMQSEDLADYFCQQYSSYPLTFGAGTKLELK
6 | 105 | 164 | 186 | 189 | 230 | mouse anti-IL6R monoclonal antibody 1H7 (antibody, V domains shown, Mouse hybridoma mAb) VH: QVQLQQPGTELVKPGASVKLSCKASGYTFTNYWMHWVKQRPGQGLDWIGEINPTNGRTNYNENFKSKATLTVDKSSSTAYMQLSSLTSEDSAVYYCARLNTHYVFDSWGQGTTLTLSS VL: EIVLTQSPTTLAASPGEKITFTCSVSSSISSNYLHWYQQKPGFSPKLLISRTSTLASGVPARFSGSGSGTSYSLTIGTMEAEDVATYYCQQGSGIPFTFGSGTKLELK
